B1: ABT1-95-35 (other)
VL: DIQMTQSPSSLSASVGDRVTITCRASGPIVRNLRWYQQKPGKAPKLLIYSSSYLEPGVPSRFSGSGSGTDFTLTISSLQPEDFATYHCQQGYRWPVTFGQGTKVEIKR
notes: VK dAb
B2: ABT1-95-55 (other)
VL: DIQMTQSPSSLSASVGDRVTITCRASQPIVHNLRWYQQKPGKAPKLLIYSSSYLEPGVPSRFSGSGSGTDFTLTISSLQPEDFATYHCQQGYRWPVTFGQGTKVEIKR
notes: VK dAb
B3: ABT1-95-52 (other)
VL: DIQMTQSPSSLSASVGDRVTITCRASQPIVSNLRWYQQKPGKAPKLLIYSSSYLEPGVPSRFSGSGSGTDFTLTISSLQPEDFATYHCQQGYRWPVTFGQGTKVEIKR
notes: VK dAb
B4: ABT1-95-53 (other)
VL: DIQMTQSPSSLSASVGDRVTITCRASQPIVANLRWYQQKPGKAPKLLIYSSSYLEPGVPSRFSGSGSGTDFTLTISSLQPEDFATYHCQQGYRWPVTFGQGTKVEIKR
notes: VK dAb
B5: ABT1-95-54 (other)
VL: DIQMTQSPSSLSASVGDRVTITCRASQPIVTNLRWYQQKPGKAPKLLIYSSSYLEPGVPSRFSGSGSGTDFTLTISSLQPEDFATYHCQQGYRWPVTFGQGTKVEIKR
notes: VK dAb
B6: ABT1-95-50 (other)
VL: DIQMTQSPSSLSASVGDRVTITCRASQPIPRNLRWYQQKPGKAPKLLIYSSSYLEPGVPSRFSGSGSGTDFTLTISSLQPEDFATYHCQQGYRWPVTFGQGTKVEIKR
notes: VK dAb
B7: ABT1-95-60 (other)
VL: DIQMTQSPASLSASVGDRVTITCRASQPIVANLRWYQQKPGKAPKLLIYSSSYLEPGVPSRFSGSGSGTDFTLTISSLQPEDFATYHCQQGYRWPVTFGQGTKVEIKR
notes: VK dAb
B8: ABT1-95-46 (other)
VL: DIQMTQSPSSLSASVGDRVTITCRASSPIVQNLRWYQQKPGKAPKLLIYSSSYLEPGVPSRFSGSGSGTDFTLTISSLQPEDFATYHCQQGYRWPVTFGQGTKVEIKR
notes: VK dAb
B9: ABT1-95-58 (other)
VL: DIQMTQSPSSLSASVGDRVTITCRARQPIVSNLRWYQQKPGKAPKLLIYSSSYLEPGVPSRFSGSGSGTDFTLTISSLQPEDFATYHCQQGYRWPVTFGQGTKVEIKR
notes: VK dAb
B10: ABT1-95-63 (other)
VL: DIQMTQSPSSLSASVGDRVTITCRASQPIVRNLRWYQQKLGKAPKLLIFSSSYLEPGVPSRFSGSGSGTDFTLTISSLQPEDFATYHCQQGYRWPVTFGQGTKVEIKR
notes: VK dAb
B11: ABT1-95-39 (other)
VL: DIQMTQSPSSLSASVGDRVTITCRASQPIVRNLRWYQQKPGKAPKLLIYSSSYLEPGVPSRFSGSGSGTDFTLTISGLQPEDFATYHCQQGYRWPVTFGQGTKVEIKR
notes: VK dAb
B12: ABT1-95-57 (other)
VL: DIQMTQSPSSLSASVGDRVTITCRASQPIVENLRWYQQKPGKAPKLLIYSSSYLEPGVPSRFSGSGSGTDFTLTISSLQPEDFATYHCQQGYRWPVTFGQGTKVEIKR
notes: VK dAb
B13: ABT1-95-42 (other)
VL: DIQMTQSPSSLSASVGDRVTITCRASFPIVRNLRWYQQKPGKAPKLLIYSSSYLEPGVPSRFSGSGSGTDFTLTISSLQPEDFATYHCQQGYRWPVTFGQGTKVEIKR
notes: VK dAb
B14: ABT1-95-59 (other)
VL: DIQMTQSPSSLSASVGDRVTITCRASQPIVKNLRWYQQKPGKAPKLLIYSSSYLEPGVPSRFSGSGSGTDFTLTISSLQPEDFATYHCQQGYRWPVTFGQGTKVEIKR
notes: VK dAb

The experiment addresses T1, human IL-1α (human, UniProt P01583 113-271).
T1 construct: also called IL-1alpha; hIL-1α
T1 sequence (looked up): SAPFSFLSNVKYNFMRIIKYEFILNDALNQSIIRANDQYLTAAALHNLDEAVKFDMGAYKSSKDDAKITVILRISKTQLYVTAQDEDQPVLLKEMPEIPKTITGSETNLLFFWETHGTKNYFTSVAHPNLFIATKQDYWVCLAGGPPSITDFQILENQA
The experiment is described as follows: Table 62 IC50; RBA presumed.
Broadly, the IC50 is the point on the concentration scale where inhibition reaches its midpoint. In the case of B1, inhibition was half-maximal at 0.2 nM (IC50). The molecule B2 registered an IC50 of 0.6 nM. In the case of B3 it was 1 nM; in that of B4, 0.3 nM; in that of B5, 1 nM. Molecule B6 came in with a concentration for half-maximal inhibition (IC50) of 0.5 nM. The value for B7 was 0.7 nM. In turn, B8 gave an IC50 of 0.8 nM. B9: the IC50 was 0.6 nM. In the case of B10 it was 0.6 nM. With B11, the concentration for half-maximal inhibition (IC50) was found to be 0.2 nM. Compared with the last molecule, the IC50 is about 3-fold lower. Molecule B12 had an IC50 of 0.6 nM. Compared with the last molecule, the IC50 is about 3-fold higher. On to B13, for which half-maximal inhibition (IC50) was put at 0.1 nM.

For B14, 0.3 nM corresponded to half-maximal inhibition (IC50).
